Article PMC10139410, “β-Cyclodextrin Polymer-Based Fluorescence Enhancement Strategy via Host–Guest Interaction for Sensitive Assay of SARS-CoV-2”

B1: N protein-binding aptamer (ssDNA)
DNA: GCTGGATGTCGCTTACGACAATATTCCTTAGGGGCACCGCTACATTGACACATCCAGC
B2: Pyrene-labeled N protein binding aptamer (ssDNA)
DNA: B1 DNA
modifications: 5'-SH (so in the source); 3'-pyrene

Tests used:
[1] = target: T1, SARS-CoV-2 nucleocapsid (N) protein (SARS-CoV-2, UniProt P0DTC9 1-419); assay: circular dichroism; 1 uM each, 30 min at 37 C; 280 nm peak increased; Tris-HCl pH 7.6, 37 C, 30 min; 400 nM aptamer, 240 U/mL Exo I, 1.5 mg/mL beta-CDP; salt not in the material held
[2] = target: T1, SARS-CoV-2 nucleocapsid (N) protein; assay: Exo I protection, agarose gel; 600 nM N protein, 400 nM aptamer, 240 U/mL Exo I; labeled form inferred from text on pyrene; Tris-HCl pH 7.6, 37 C, 30 min; 400 nM aptamer, 240 U/mL Exo I, 1.5 mg/mL beta-CDP; salt not in the material held; conditions: label: 3'-pyrene

Binder	binding result [1]	binding result [2]
B1	binds	–
B2	–	binds
